Results published in the supplement of paper PMC10065799, “High-throughput profiling of sequence recognition by tyrosine kinases and SH2 domains using bacterial peptide display” (eLife, 2023).

Target: SHP2-C SH2
Test: SH2 binding enrichment of the phosphorylated peptide, bacterial display (enrichment ratio); higher = better substrate or ligand; peptides without Tyr show the background
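Also: peptide library displayed on the E. coli surface as eCPX fusions, selected cells deep-sequenced, score is each peptide's frequency after selection divided by its frequency in the input.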

Sequence	SH2 binding enrichment
RSAGKYDVYLI [MECP2_Y120]	0.539
AAALAYGLDKS [HSPA9_Y230]	0.637
SDQRRYSLIDP [CLIP2_Y972_R977P]	3.82
CHSDDYVHISI [TSC1_Y406_L411I]	0.723
LARNMYDKEFF [MET_Y1230_D1228N_YF]	0.739
SRFQFYFQQKG [CHKB_Y381]	0.728
AAVNGYAFGGG [ECHS1_Y137]	0.647
SEELHYYVQNH [UQCRC2_Y207_F208Y]	0.451
SVTCAYSPALN [TP53_Y126_T125A]	0.66
TLSGIYQYSIA [FOXL2_Y81_I84S]	1.83
CTTIHYNYKCN [TP53_Y234_M237K]	1.4
TDLAYYLVREG [ASL_Y376_K380E]	2.07
RGFRQDAFDGK [HLA-A_Y140_YF]	1.05
DSMQSYDLDYP [UNC13B_Y243]	0.456
GTYVIYVRFSG [FLNB_Y1687_G1691S]	1.44
VSTKVYKRFPS [BEST1_Y148_A146K]	0.848
KKHIPCREHKS [CSNK1G2_Y206_Y206C]	1.62

Sequence	SH2 binding enrichment
QKFMAYLSQGW [HLCS_Y236_G241W]	1.5
HSYNSYTYPRL [PAK5_Y316]	1.12
YGSSSYGGAGG [RPA2_Y14]	0.793
DEDFLYREELA [POR_Y575_YF]	0.793
SEKIVYGHLDD [ACO2_Y71]	0.926
MPVDGYISGLL [PAK6_Y81]	0.661
REGAKYVSHCA [ASS1_Y113_G117C]	0.723
CDKEFYSVHNK [MET_Y1235_Y1230C_YF]	0.902
IFHLSYHHNCE [PDE6B_Y227_L228H_YF]	1.16
LPQDGYRIVQH [PTPRT_Y1329_R1324L]	0.708
LYYYSYLLKNH [PTEN_Y180_V175L]	1.23
YPSLPYSPVSS [CAMKK2_Y128_C123Y]	1.01
YDRREYSRFEK [ITGB7_Y758]	0.813
CGSLLYGLVHQ [PRKCG_Y122]	0.908
VECQVYAEDPY [PCCA_Y401_R399Q]	0.719
HRNNNYEPNLF [BRCA2_Y57_K53R]	0.651

Target: c-Src SH2
Test: as above

Sequence	SH2 binding enrichment
RSAGKYDVYLI [MECP2_Y120]	0.579
AAALAYGLDKS [HSPA9_Y230]	0.423
SDQRRYSLIDP [CLIP2_Y972_R977P]	15.9
CHSDDYVHISI [TSC1_Y406_L411I]	0.575
LARNMYDKEFF [MET_Y1230_D1228N_YF]	0.541
SRFQFYFQQKG [CHKB_Y381]	0.473
AAVNGYAFGGG [ECHS1_Y137]	0.455
SEELHYYVQNH [UQCRC2_Y207_F208Y]	0.723
SVTCAYSPALN [TP53_Y126_T125A]	0.457
TLSGIYQYSIA [FOXL2_Y81_I84S]	1.93
CTTIHYNYKCN [TP53_Y234_M237K]	1.67
TDLAYYLVREG [ASL_Y376_K380E]	1.51
RGFRQDAFDGK [HLA-A_Y140_YF]	0.412
DSMQSYDLDYP [UNC13B_Y243]	0.733
GTYVIYVRFSG [FLNB_Y1687_G1691S]	0.587
VSTKVYKRFPS [BEST1_Y148_A146K]	0.656
KKHIPCREHKS [CSNK1G2_Y206_Y206C]	1.68

Sequence	SH2 binding enrichment
QKFMAYLSQGW [HLCS_Y236_G241W]	0.689
HSYNSYTYPRL [PAK5_Y316]	9.16
YGSSSYGGAGG [RPA2_Y14]	0.438
DEDFLYREELA [POR_Y575_YF]	0.448
SEKIVYGHLDD [ACO2_Y71]	0.56
MPVDGYISGLL [PAK6_Y81]	0.511
REGAKYVSHCA [ASS1_Y113_G117C]	0.676
CDKEFYSVHNK [MET_Y1235_Y1230C_YF]	0.727
IFHLSYHHNCE [PDE6B_Y227_L228H_YF]	0.873
LPQDGYRIVQH [PTPRT_Y1329_R1324L]	0.44
LYYYSYLLKNH [PTEN_Y180_V175L]	0.666
YPSLPYSPVSS [CAMKK2_Y128_C123Y]	0.668
YDRREYSRFEK [ITGB7_Y758]	0.737
CGSLLYGLVHQ [PRKCG_Y122]	0.519
VECQVYAEDPY [PCCA_Y401_R399Q]	0.457
HRNNNYEPNLF [BRCA2_Y57_K53R]	0.668
